# Experimental data published in patent US20240336907A1, “NOVEL ENDO-ß-N-ACETYLGLUCOSAMINIDASE” (priority 2020, published 2024).
# Tests used:
# [1] = Substrate specificity in various 2-AB labeled sugar chains (HPLC); type: biochemical; settings: 37° C., 24 hours
# Method: The substrate specificity of Endo-Si in various sugar chains were measured as follows. A 50 mM Tris-HCl buffer (pH 7.5) solution (10 μL) containing 5 pmol of each of various sugar chains labeled with 2-AB (manufactured by Agilent Technologies) and 20 μg of Endo-Si WT, was prepared and incubated at 37° C. for 24 hours, and thereafter treated at 95° C. for 5 minutes to terminate the reaction. The reaction solution was subjected to HPLC analysis carried out under the following conditions.
# [HPLC Analysis Conditions]
# HPLC apparatus: 1200 Infinity LC (manufactured by Agilent Technologies)
# Column: ACQUITY UPLC Glycan Amide 130 Å, 1.7 μm, 2.1×150 mm (manufactured by Waters)
# Column temperature: 40° C.
# Detector: Fluorescence detector RF-20Axs (manufactured by Shimadzu Corporation)
# Mobile phase A: H2O+0.1% HCOOH
# Mobile phase B: Acetonitrile+0.1% HCOOH
# Gradient (mobile phase B %): 90% (0 minute), 40% (25 minutes)
# Enzyme activity was calculated based on the peak area ratio between a substrate and a hydrolysate, GlcNAc-2AB. […] Of them, the activity on (specificity to) G0 sugar chain is the highest.
# [2] = test system: mAb1; assay: Evaluation of reaction pH for hydrolysis of mAb1 sugar chain; type: biochemical
# Method: The hydrolysis rates of a sugar chain with Endo-Si and EndoS at individual pH values were measured as follows. A 50 mM citric acid-sodium phosphate buffer (pH 5.0 or 5.5) solution, sodium phosphate buffer (pH 6.0, 6.5 or 7.0) solution or Tris-HCl buffer (pH 7.5, 8.0, 8.5 or 9.0) solution (50 μL for each) containing 0.1 mg of mAb1, and 10 ng of Endo-Si WT or EndoS WT, was prepared and incubated at 37° C. Each of the reaction solutions at a half hour after initiation of reaction was sampled and the hydrolysis rate of a sugar chain was calculated in accordance with the aforementioned method.
# [3] = test system: (Fucα1,6)GlcNAc-mAb2; assay: Transglycosylation activity with sugar chain oxazoline [N3-PEG(3)]-MSG1(9)-Ox as donor; type: biochemical; settings: donor [N3-PEG(3)]-MSG1(9)-Ox (8 eq.), enzyme 1.25 μg, 28° C., pH 7.5
# Method: Transglycosylation activity was evaluated as follows. […] A sample was taken from each of the reaction solutions at 1, 2, 4, 6, and 24 hours after initiation of the reaction and analyzed for protein by a fully automated electrophoresis system as mentioned above. In the chromatogram obtained, an unreacted product and transglycosylated molecule, mAb2-(MSG1-N3)2 were confirmed as discrete peaks. The transglycosylation rate was calculated based on the peak-area ratio between the unreacted product and the transglycosylated molecule in accordance with the following expression.
# Transglycosylation rate (%)=[[peak area of mAb2-(MSG1-N3)2-derived H chain]/{[peak area of (Fucα1,6)GlcNAc-mAb2-derived H chain]+[peak area of mAb2-(MSG1-N3)2-derived H chain]}]×100
# Similarly, the transglycosylation rates of individual Endo-Si mutant enzymes at each time period for a reaction were calculated (Table 5).
# [4] = test system: IgA; assay: Substrate specificity in various antibodies (band shift in electrophoresis); type: biochemical, human; settings: 10 μg substrate, 1 μg enzyme, 37° C., pH 7.5, two hours
# Method: (§1) The hydrolysis activities of Endo-Si, EndoS and PNGaseF on various antibodies were measured as follows. A 50 mM Tris-HCl buffer (pH 7.5) solution (50 μL) containing each of various substrates (10 μg), and 1 μg Endo-Si WT was prepared and incubated at 37° C. As the substrate, human IgG1-4, IgA, and IgE (all manufactured by Sigma Aldrich) were used. As the controls, 1 μg of EndoS WT and 500 U PNGase F PRIME (manufactured by N-zyme Scientifics) were used. Two hours after initiation of the reaction, a sample was taken from the reaction solution and analyzed for protein by a fully automated electrophoresis system mentioned above.
# (§2) When a sugar chain is hydrolyzed by addition of an enzyme, the band of a protein shifts to the lower molecular weight side compared to when the enzyme was not added.
# [5] = test system: IgE; assay: as above; type: biochemical, human; settings: 10 μg substrate, 1 μg enzyme, 37° C., pH 7.5, two hours
# Method: as §1, §2
# [6] = test system: mAb1; assay: Evaluation of reaction temperature for hydrolysis of mAb1 sugar chain; type: biochemical
# Method: The hydrolysis rates of a sugar chain with Endo-Si and EndoS at individual temperatures were measured as follows. A 50 mM Tris-HCl buffer (pH 7.5) solution (50 μL) containing 0.1 mg of mAb1 and 10 ng of Endo-Si WT or EndoS WT was prepared and incubated at each temperature of 27, 29, 31, 35, 37, 40, 43, 46, 48, and 50° C. Each of the reaction solutions at a half hour after initiation of a reaction was sampled and the hydrolysis rate of a sugar chain was calculated in accordance with the aforementioned method.
# [7] = test system: human IgG1-4; assay: Substrate specificity in various antibodies (band shift in electrophoresis); type: biochemical; settings: 10 μg substrate, 1 μg enzyme, 37° C., pH 7.5, two hours
# Method: as §1, §2
# [8] = test system: (Fucα1,6)GlcNAc-mAb2; assay: Transglycosylation activity with SGP as donor, in combination with Endo-M N175Q; type: biochemical; settings: donor SGP (50 eq.), Endo-M N175Q 2.5 mU, Endo-Si enzyme 10 μg, 23° C., pH 7.5
# Method: Transglycosylation activity was evaluated as follows. A 50 mM (sodium) phosphate buffer (pH 7.5) solution (17 μL) containing (Fucα1,6)GlcNAc-mAb2 (0.5 mg), SGP (0.485 mg (50 eq.)), Endo-M N175Q (manufactured by Tokyo Kasei Kogyo Co., Ltd.) (2.5 mU) and each of various Endo-Si mutant enzymes (10 μg), was prepared and incubated at 23° C. A sample was taken from each of the reaction solutions at 2, 4, 6, 24, and 48 hours after initiation of the reaction and analyzed for protein by a fully automated electrophoresis system as mentioned above. In the chromatogram obtained, an unreacted product and a transglycosylated molecule, mAb2-(SG)2 are confirmed as discrete peaks. The transglycosylation rates were obtained based on the peak area ratio between the unreacted product and the transglycosylated molecule in accordance with the following expression.
# Similarly, transglycosylation rates of individual Endo-Si mutant enzymes at each time period of a reaction were calculated (Table 6).
molecule,measurement,setting,value
"Endo-Si WT: endo-β-N-acetylglucosaminidase derived from Streptococcus iniae, amino acid positions 34 to 928 in SEQ ID NO: 2 (protein, listed as Streptococcus iniae) REELKMPNGLEQSIADVEAKIDALTYLSKNSKDEFKHSMYEIPSNREHKPVSPKQALQNAKKADAQAERLAKMTIPKKEELKALEGPLYGGYFRTWQDKTSDPTETNKVNSFGELPKEVDLAFVFHDYTKDYSLFWEELATKQVPKLNKQGTRVIRTIPWRFLSGADHSDISADKEKFPNTEAGNKALAKAIVDEYVYKYNLDGLDIDIERDSVPKVNDKEDPEALARTVEVFKEIGKLIGANGADKSRLLIMDTTYTAEENPLIKETAQYLNLLLVQVYGFSGENGNYLHHKNILDETSSMEGRWQGYSKYIRPEQYMVGFSFYEEKDFNNRWKDINEEDPSDPHIGEKIQGTRAERYAKWQPKTGGLKGGLFSYAIDRDGVAQPKQKTEHPELDKIVKSEYKVSKALKKLMMTDDQYQPIDQSDFPDKALRESIIKQVGTRRGDLERFKGTLRLDNPEIKDLTGLNKLKRVAKLELINLPKITKIDKDDLPQNLKPLTDNQKSNLEIKGTYDDSKLYKDIPAFDLVISGLSGLESLDISGHQRDTLSGIDASTLPSLKAINISDNHFDLAQGTENRHILDTILATLAKNGASTASFDKQKPKGLYPESYSTAPLHLQVGQGKINVIDDLIFGTRTNQNTLINTENDFEAYKEQTIQGKPFIAPDYLYDNFKVSYKEYSASIVDSTLAETTDKTIDTAKAETYQVTVSNKDGKTVHSVKVIVGDEKPMMVNLAQDAKIIGTDNMTQSAKVFDGQKDQFLLSWNKDSSVIFELKTPGTAKHWRFFDDGKNDSVTLSVFKGDASNFETEKDKAENWVEITKDSRKNDDKVFSSPLEVDNAKYLKVTIKKEAKYIYFNELQILGYPGVVAKKTADDLRPTEADKSDDKSDKNDTEAK",Relative activity,"[1]; substrate 2-AB G0 (agafacto biantennary), reference regarded as 100%",100%
same,Relative activity,"[1]; substrate 2-AB G2 (asfato biantennary), activity against G0 sugar chain regarded as 100%",73.2%
same,Relative activity,"[1]; substrate 2-AB G2F (core-fucosylated biantennary), activity against G0 sugar chain regarded as 100%",50.1%
same,Relative activity,"[1]; substrate 2-AB G2S2 (a2,6) (sialyl biantennary), activity against G0 sugar chain regarded as 100%",17.1%
same,Relative activity,"[1]; substrate 2-AB G3 (triantennary), activity against G0 sugar chain regarded as 100%",Not detected
same,Relative activity,"[1]; substrate 2-AB Man3, activity against G0 sugar chain regarded as 100%",7.2%
same,Relative activity,"[1]; substrate 2-AB Man 5, activity against G0 sugar chain regarded as 100%",1.9%
same,Relative activity,"[1]; substrate 2-AB Man6, activity against G0 sugar chain regarded as 100%",6.6%
same,Relative activity,"[1]; substrate 2-AB Man8, activity against G0 sugar chain regarded as 100%",5.2%
same,Relative activity,"[1]; substrate 2-AB Man9, activity against G0 sugar chain regarded as 100%",3.3%
same,hydrolysis activity compared with EndoS,[2]; at around pH 6.7 or more,higher than that of EndoS
same,optimum pH for hydrolysis: particularly around,"[2]; mAb1, 37° C., half hour reaction, particularly around (pH 7.2 to 8.0)",~7.5 pH
same,Transglycosylation rate,[3]; 1 h,0.0%
same,Transglycosylation rate,[3]; 2 h,0.0%
same,Transglycosylation rate,[3]; 4 h,0.0%
same,Transglycosylation rate,[3]; 6 h,0.0%
same,Transglycosylation rate,[3]; 24 h,0.0%
same,hydrolysis activity on IgA,[4],no hydrolysis activity
same,hydrolysis activity on IgE,[5],no hydrolysis activity
same,hydrolysis activity compared with EndoS,[6]; at individual temperatures 27 to 50° C.,higher hydrolysis activity than EndoS
same,optimum reaction temperature for hydrolysis: particularly around,"[6]; mAb1, pH 7.5, half hour reaction, particularly around (35° C. to 39° C.)",around 37 °C
same,hydrolysis activity on the 4 subclasses of IgG,[7],exhibited hydrolysis activity
same,Transglycosylation rate,[8]; 2 h,1.2%
same,Transglycosylation rate,[8]; 4 h,1.1%
same,Transglycosylation rate,[8]; 6 h,0.0%
same,Transglycosylation rate,[8]; 24 h,0.0%
same,Transglycosylation rate,[8]; 48 h,0.0%
